The supplement of paper PMC9112550, “Optimization of the antimicrobial peptide Bac7 by deep mutational scanning” (BMC Biology, 2022)

system: Escherichia coli TOP10; assay: shrunken log2 fold change of peptide-encoding DNA abundance (4.5 h post-induction vs induction); higher = less antimicrobial activity (less host growth inhibition); details: time post-induction: 4.5 h; library: site-saturation at positions 5, 18, 19, 20
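Also: peptides expressed intracellularly from a pBAD plasmid library in pooled LB shake-flask culture, induced with 0.3% L-arabinose, DNA abundance read by NGS, three biological replicates, DESeq2 with apeglm shrinkage.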

Sequence	shrunken log2 fold change
RRIRPRPPRLPRPRPRPKVNPRP	-0.148
RRIRTRPPRLPRPRPRPELKPRP	0.432
RRIRWRPPRLPRPRPRPDTQPRP	-0.0933
RRIRGRPPRLPRPRPRPSARPRP	1.1
RRIRARPPRLPRPRPRPVLYPRP	0.0232
RRIRYRPPRLPRPRPRPDQPPRP	0.0375
RRIRPRPPRLPRPRPRPARHPRP	0.616
RRIRRRPPRLPRPRPRPAWHPRP	0.527
RRIRSRPPRLPRPRPRPQNTPRP	-0.522
RRIRFRPPRLPRPRPRPTIVPRP	0.0438
RRIRMRPPRLPRPRPRPHQKPRP	-0.0408
RRIRNRPPRLPRPRPRPCYTPRP	-0.0126
RRIRKRPPRLPRPRPRPMCYPRP	-0.00324
RRIRKRPPRLPRPRPRPFITPRP	-0.352
RRIRVRPPRLPRPRPRPSNVPRP	-0.139
RRIRSRPPRLPRPRPRPNHVPRP	-0.803
RRIRTRPPRLPRPRPRPYDAPRP	0.0888
RRIRHRPPRLPRPRPRPKTMPRP	-0.0912
RRIRPRPPRLPRPRPRPCDEPRP	0.0442
RRIRYRPPRLPRPRPRPKHKPRP	-0.545
RRIRARPPRLPRPRPRPFQYPRP	0.0189
RRIRGRPPRLPRPRPRPFHAPRP	-0.13
RRIRVRPPRLPRPRPRPSCQPRP	-0.643
RRIRKRPPRLPRPRPRPAPIPRP	0.716
RRIRTRPPRLPRPRPRPMSPPRP	-0.152

Sequence	shrunken log2 fold change
RRIRDRPPRLPRPRPRPFNQPRP	-0.733
RRIRCRPPRLPRPRPRPVWDPRP	-0.107
RRIRERPPRLPRPRPRPPGHPRP	-0.0333
RRIRMRPPRLPRPRPRPGMFPRP	0.341
RRIRLRPPRLPRPRPRPYVWPRP	-0.872
RRIRERPPRLPRPRPRPINYPRP	-0.286
RRIRNRPPRLPRPRPRPLWNPRP	-0.511
RRIRGRPPRLPRPRPRPYYLPRP	-0.791
RRIRLRPPRLPRPRPRPLYNPRP	-0.305
RRIRRRPPRLPRPRPRPDNTPRP	0.876
RRIRVRPPRLPRPRPRPCADPRP	-0.101
RRIRLRPPRLPRPRPRPQYYPRP	-0.396
RRIRSRPPRLPRPRPRPHHWPRP	-0.221
RRIRSRPPRLPRPRPRPPHIPRP	-0.0943
RRIRPRPPRLPRPRPRPTQCPRP	-0.194
RRIRDRPPRLPRPRPRPWSKPRP	-0.203
RRIRGRPPRLPRPRPRPSIGPRP	0.0763
RRIRMRPPRLPRPRPRPESTPRP	2.28
RRIRRRPPRLPRPRPRPSMMPRP	-0.216
RRIRARPPRLPRPRPRPHERPRP	0.0956
RRIRLRPPRLPRPRPRPRFFPRP	0.0823
RRIRLRPPRLPRPRPRPGYDPRP	-0.233
RRIRDRPPRLPRPRPRPIPPPRP	0.239
RRIRPRPPRLPRPRPRPVPPPRP	0.26
RRIRCRPPRLPRPRPRPCCCPRP	-0.224

Sequence	shrunken log2 fold change
RRIRPRPPRLPRPRPRPIKTPRP	0.0751
RRIRCRPPRLPRPRPRPVWNPRP	0.0577
RRIRIRPPRLPRPRPRPAIKPRP	-0.265
RRIRDRPPRLPRPRPRPWNNPRP	-0.0248
RRIRERPPRLPRPRPRPYQCPRP	-0.00884
RRIRDRPPRLPRPRPRPLCNPRP	-0.00406
RRIRARPPRLPRPRPRPGNVPRP	0.332
RRIRIRPPRLPRPRPRPQKHPRP	-0.46
RRIRRRPPRLPRPRPRPEMLPRP	0.0638
RRIRSRPPRLPRPRPRPIRLPRP	-0.27
RRIRIRPPRLPRPRPRPSSYPRP	-0.207
RRIRARPPRLPRPRPRPCIHPRP	-0.438
RRIRGRPPRLPRPRPRPNIQPRP	0.398
RRIRARPPRLPRPRPRPTLRPRP	0.148
RRIRARPPRLPRPRPRPLKNPRP	-0.127
RRIRPRPPRLPRPRPRPDQQPRP	-0.0644
RRIRVRPPRLPRPRPRPIEHPRP	-0.168
RRIRRRPPRLPRPRPRPCWYPRP	-0.112
RRIRTRPPRLPRPRPRPGMQPRP	-0.0474
RRIRSRPPRLPRPRPRPESVPRP	0.17
RRIRFRPPRLPRPRPRPICDPRP	0.0526
RRIRKRPPRLPRPRPRPKEQPRP	-0.0322
RRIRCRPPRLPRPRPRPCHMPRP	-0.443
RRIRVRPPRLPRPRPRPQSAPRP	-0.054
RRIRYRPPRLPRPRPRPGDKPRP	-0.288

Sequence	shrunken log2 fold change
RRIRGRPPRLPRPRPRPAMYPRP	0.369
RRIRERPPRLPRPRPRPQWWPRP	0.273
RRIRYRPPRLPRPRPRPMIYPRP	-0.0142
RRIRYRPPRLPRPRPRPVSQPRP	-0.303
RRIRHRPPRLPRPRPRPQVDPRP	-0.0221
RRIRSRPPRLPRPRPRPKKYPRP	-0.3
RRIRSRPPRLPRPRPRPLENPRP	-0.0294
RRIRMRPPRLPRPRPRPCMIPRP	-0.0212
RRIRGRPPRLPRPRPRPHYEPRP	-0.21
RRIRMRPPRLPRPRPRPFAWPRP	0.139
RRIRPRPPRLPRPRPRPKIFPRP	-0.0976
RRIRLRPPRLPRPRPRPGKRPRP	0.364
RRIRQRPPRLPRPRPRPPGAPRP	0.757
RRIRRRPPRLPRPRPRPAMTPRP	0.314
RRIRHRPPRLPRPRPRPRHWPRP	-0.0269
RRIRGRPPRLPRPRPRPEVQPRP	1.71
RRIRQRPPRLPRPRPRPKMRPRP	0.0141
RRIRARPPRLPRPRPRPDLKPRP	0.523
RRIRTRPPRLPRPRPRPWIHPRP	-0.636
RRIRVRPPRLPRPRPRPQGSPRP	-0.205
RRIRKRPPRLPRPRPRPKIDPRP	0.545
RRIRYRPPRLPRPRPRPHWHPRP	-0.912
RRIRFRPPRLPRPRPRPYMNPRP	-0.818
RRIRIRPPRLPRPRPRPSTFPRP	-0.329
RRIRVRPPRLPRPRPRPSYCPRP	-0.18

Sequence	shrunken log2 fold change
RRIRKRPPRLPRPRPRPWLPPRP	0.0665
RRIRDRPPRLPRPRPRPPRFPRP	0.315
RRIRIRPPRLPRPRPRPMNLPRP	-0.152
RRIRIRPPRLPRPRPRPQCVPRP	-0.0555
RRIRCRPPRLPRPRPRPQDIPRP	-0.213
RRIRHRPPRLPRPRPRPPCKPRP	-0.196
RRIRSRPPRLPRPRPRPCPEPRP	-0.444
RRIRIRPPRLPRPRPRPAMIPRP	0.0156
RRIRFRPPRLPRPRPRPQKCPRP	-0.332
RRIRTRPPRLPRPRPRPVWWPRP	0.423
RRIRWRPPRLPRPRPRPHSSPRP	-0.0864
RRIRPRPPRLPRPRPRPWGIPRP	-0.0138
RRIRERPPRLPRPRPRPYIHPRP	-0.17
RRIRMRPPRLPRPRPRPTACPRP	1.02
RRIRIRPPRLPRPRPRPDASPRP	-0.00609
RRIRVRPPRLPRPRPRPQKMPRP	-0.234
RRIRYRPPRLPRPRPRPQEMPRP	-0.0143
RRIRWRPPRLPRPRPRPVMVPRP	0.0467
RRIRSRPPRLPRPRPRPCTYPRP	-0.454
RRIRPRPPRLPRPRPRPWEEPRP	0.148
RRIRARPPRLPRPRPRPPVSPRP	0.554
RRIRFRPPRLPRPRPRPPWEPRP	0.124
RRIRSRPPRLPRPRPRPESIPRP	-0.397
RRIRFRPPRLPRPRPRPYWEPRP	-0.391
RRIRQRPPRLPRPRPRPTGDPRP	0.349

Sequence	shrunken log2 fold change
RRIRCRPPRLPRPRPRPDYNPRP	-0.571
RRIRNRPPRLPRPRPRPKNDPRP	-0.0949
RRIRHRPPRLPRPRPRPSAGPRP	-0.182
RRIRTRPPRLPRPRPRPPYQPRP	0.0802
RRIRMRPPRLPRPRPRPMCCPRP	0.207
RRIRQRPPRLPRPRPRPQPYPRP	-0.0274
RRIRGRPPRLPRPRPRPCELPRP	-0.02
RRIRKRPPRLPRPRPRPPLWPRP	0.931
RRIRCRPPRLPRPRPRPRQCPRP	0.0586
RRIRWRPPRLPRPRPRPVHDPRP	0.141
RRIRRRPPRLPRPRPRPWDGPRP	0.399
RRIRPRPPRLPRPRPRPKEIPRP	-0.0621
RRIRPRPPRLPRPRPRPVQYPRP	-0.0191
RRIRPRPPRLPRPRPRPGEYPRP	-0.207
RRIRWRPPRLPRPRPRPPLNPRP	0.188
RRIRLRPPRLPRPRPRPHGEPRP	0.191
RRIRERPPRLPRPRPRPPCCPRP	0.00664
RRIRTRPPRLPRPRPRPMNTPRP	-0.609
RRIRPRPPRLPRPRPRPFLIPRP	-0.459
RRIRERPPRLPRPRPRPIGEPRP	0.128
RRIRGRPPRLPRPRPRPCRHPRP	0.0672
RRIRWRPPRLPRPRPRPWLGPRP	0.00929
RRIRRRPPRLPRPRPRPTIKPRP	-0.0992
RRIRGRPPRLPRPRPRPRCLPRP	0.706
RRIRKRPPRLPRPRPRPTPVPRP	0.756
